Structures can show the parent of a compound that is named as a salt. [ ]: non-standard residue; d: D form. Aib = CC(C)(N)C(=O)O
T1: human glucose-dependent insulinotropic polypeptide receptor (GIPR) (human, UniProt P48546 22-466)
T1 sequence (looked up): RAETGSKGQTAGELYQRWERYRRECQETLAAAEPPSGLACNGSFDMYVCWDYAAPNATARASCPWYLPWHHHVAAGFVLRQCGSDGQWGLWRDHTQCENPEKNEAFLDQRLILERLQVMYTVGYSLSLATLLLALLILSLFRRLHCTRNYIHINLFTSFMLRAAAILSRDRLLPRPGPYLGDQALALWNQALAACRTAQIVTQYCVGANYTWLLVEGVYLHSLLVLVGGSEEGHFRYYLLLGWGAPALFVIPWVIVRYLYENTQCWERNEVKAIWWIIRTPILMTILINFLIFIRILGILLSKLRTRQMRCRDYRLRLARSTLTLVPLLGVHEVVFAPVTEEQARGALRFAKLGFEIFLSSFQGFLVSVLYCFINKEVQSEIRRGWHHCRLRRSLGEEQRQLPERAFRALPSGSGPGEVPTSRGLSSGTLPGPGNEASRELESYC


Columns and labels:
[1] = tested on: insulin-induced hypoglycemia rat model; experiment: Efficacy in insulin-induced hypoglycemic rat model; type: in vivo, SD rats; details: insulin 0.65 IU/kg subcutaneous at T0, phosphate buffer at 45 min (model control)
[2] = tested on: human kidney microsomes; experiment: Stability in human kidney microsome incubation system
[3] = in vitro; details: human, human kidney microsomes
[4] = target: human glucagon receptor (GCGR) (human, UniProt P47871 26-477); experiment: cell-based or functional assay
[5] = target: human glucagon-like peptide-1 receptor (GLP-1R) (human, UniProt P43220 24-463); experiment: cell-based or functional assay
[6] = target: T1, human glucose-dependent insulinotropic …; experiment: cell-based or functional assay

human glucagon receptor (GCGR), sequence (P47871 26-477): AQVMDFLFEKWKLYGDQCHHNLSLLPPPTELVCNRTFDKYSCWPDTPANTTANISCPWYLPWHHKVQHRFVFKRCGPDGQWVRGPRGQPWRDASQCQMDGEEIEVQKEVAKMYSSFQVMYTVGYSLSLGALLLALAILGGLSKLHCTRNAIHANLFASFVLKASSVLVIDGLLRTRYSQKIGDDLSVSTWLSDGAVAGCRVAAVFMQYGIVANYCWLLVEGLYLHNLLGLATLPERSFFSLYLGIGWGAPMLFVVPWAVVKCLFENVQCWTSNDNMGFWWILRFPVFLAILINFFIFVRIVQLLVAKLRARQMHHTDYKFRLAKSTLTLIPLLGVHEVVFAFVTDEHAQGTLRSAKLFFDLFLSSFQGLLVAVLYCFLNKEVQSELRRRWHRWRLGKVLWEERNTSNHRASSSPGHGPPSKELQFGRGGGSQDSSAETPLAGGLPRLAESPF

Molecule	Human GCGR receptor EC50 (nM), cAMP HTRF in CHO-K1/GCGR/CRE-Luc cells [4] [nM]	Relative activity (%) (normalized by the activity of the native glucagon), cAMP HTRF [4]	GLP-1R % Activity relative to native GLP-1, cAMP HTRF [5] [%]	GLP-1R EC50 (nM), cAMP HTRF in CHO-GLP-1R cells [5] [nM]	GIPR % Activity relative to native GIP, cAMP HTRF [6] [%]	GIPR EC50 (nM), cAMP HTRF in CHO-K1/GIPR cells [6] [nM]	other results
Insulin: insulin, 0.65 IU/kg subcutaneous, used to induce hypoglycemia in the modeling groups [reference compound]							Blood glucose 60 min [1]: 3.47 mmol/L; Blood glucose 75 min [1]: 4.15 mmol/L; Blood glucose 90 min [1]: 4.85 mmol/L; Blood glucose 105 min [1]: 5.42 mmol/L
CN(C)CCCOc1nn(Cc2ccccc2)c2ccccc12 [Benzydamine hydrochloride, benzydamine hydrochloride]							Percentage residues 0 min ([2]; With NADPH): 100.0%; Percentage residues 120 min ([2]; With NADPH): 28.12%; Percentage residues 0 min ([2]; Without NADPH): 100.0%; Percentage residues 15 min ([2]; Without NADPH): 85.59%; Percentage residues 30 min ([2]; Without NADPH): 86.82%; Percentage residues 60 min ([2]; Without NADPH): 90.39%; Percentage residues 120 min ([2]; Without NADPH): 90.95%; half-life at 1 μM [3]: 1.1 h; remaining at 0.25 h, 1 μM [3]: 83.1%; remaining at 0.5 h, 1 μM [3]: 70.8%; remaining at 1 h, 1 μM [3]: 54.2%
H-HSQGTFTSDYSKYLDL[Aib]RAQEFVQWLEST-OH (SMILES CC(C)C[C@H](NC(=O)[C@H](Cc1ccc(O)cc1)NC(=O)[C@H](CCCCN)NC(=O)[C@H](CO)NC(=O)[C@H](Cc1ccc(O)cc1)NC(=O)[C@H](CC(=O)O)NC(=O)[C@H](CO)NC(=O)[C@@H](NC(=O)[C@H](Cc1ccccc1)NC(=O)[C@@H](NC(=O)CNC(=O)[C@H](CCC(N)=O)NC(=O)[C@H](CO)NC(=O)[C@@H](N)Cc1c[nH]cn1)[C@@H](C)O)[C@@H](C)O)C(=O)N[C@@H](CC(=O)O)C(=O)N[C@@H](CC(C)C)C(=O)NC(C)(C)C(=O)N[C@@H](CCCNC(=N)N)C(=O)N[C@@H](C)C(=O)N[C@@H](CCC(N)=O)C(=O)N[C@@H](CCC(=O)O)C(=O)N[C@@H](Cc1ccccc1)C(=O)N[C@H](C(=O)N[C@@H](CCC(N)=O)C(=O)N[C@@H](Cc1c[nH]c2ccccc12)C(=O)N[C@@H](CC(C)C)C(=O)N[C@@H](CCC(=O)O)C(=O)N[C@@H](CO)C(=O)N[C@H](C(=O)O)[C@@H](C)O)C(C)C) [Glucagon analog compound 40]	0.06	318	0.192	140	< 0.07	> 100	
H-HSQGTFTSDYSKYLDI[Aib]RAQEFVQWLEST-OH (SMILES CC[C@H](C)[C@H](NC(=O)[C@H](CC(=O)O)NC(=O)[C@H](CC(C)C)NC(=O)[C@H](Cc1ccc(O)cc1)NC(=O)[C@H](CCCCN)NC(=O)[C@H](CO)NC(=O)[C@H](Cc1ccc(O)cc1)NC(=O)[C@H](CC(=O)O)NC(=O)[C@H](CO)NC(=O)[C@@H](NC(=O)[C@H](Cc1ccccc1)NC(=O)[C@@H](NC(=O)CNC(=O)[C@H](CCC(N)=O)NC(=O)[C@H](CO)NC(=O)[C@@H](N)Cc1c[nH]cn1)[C@@H](C)O)[C@@H](C)O)C(=O)NC(C)(C)C(=O)N[C@@H](CCCNC(=N)N)C(=O)N[C@@H](C)C(=O)N[C@@H](CCC(N)=O)C(=O)N[C@@H](CCC(=O)O)C(=O)N[C@@H](Cc1ccccc1)C(=O)N[C@H](C(=O)N[C@@H](CCC(N)=O)C(=O)N[C@@H](Cc1c[nH]c2ccccc12)C(=O)N[C@@H](CC(C)C)C(=O)N[C@@H](CCC(=O)O)C(=O)N[C@@H](CO)C(=O)N[C@H](C(=O)O)[C@@H](C)O)C(C)C) [Glucagon analog compound 42]	0.093	207	0.291	92.1	< 0.07	> 100	
H-HSHGTFTSDYSKYLDL[Aib]RAQEFVQWLEST-OH (SMILES CC(C)C[C@H](NC(=O)[C@H](Cc1ccc(O)cc1)NC(=O)[C@H](CCCCN)NC(=O)[C@H](CO)NC(=O)[C@H](Cc1ccc(O)cc1)NC(=O)[C@H](CC(=O)O)NC(=O)[C@H](CO)NC(=O)[C@@H](NC(=O)[C@H](Cc1ccccc1)NC(=O)[C@@H](NC(=O)CNC(=O)[C@H](Cc1c[nH]cn1)NC(=O)[C@H](CO)NC(=O)[C@@H](N)Cc1c[nH]cn1)[C@@H](C)O)[C@@H](C)O)C(=O)N[C@@H](CC(=O)O)C(=O)N[C@@H](CC(C)C)C(=O)NC(C)(C)C(=O)N[C@@H](CCCNC(=N)N)C(=O)N[C@@H](C)C(=O)N[C@@H](CCC(N)=O)C(=O)N[C@@H](CCC(=O)O)C(=O)N[C@@H](Cc1ccccc1)C(=O)N[C@H](C(=O)N[C@@H](CCC(N)=O)C(=O)N[C@@H](Cc1c[nH]c2ccccc12)C(=O)N[C@@H](CC(C)C)C(=O)N[C@@H](CCC(=O)O)C(=O)N[C@@H](CO)C(=O)N[C@H](C(=O)O)[C@@H](C)O)C(C)C) [Glucagon analog compound 43]	0.052	371					
H-HSQGTFTSDYSKYLDT[Aib]RAQEFVQWLEST-OH (SMILES CC(C)C[C@H](NC(=O)[C@H](Cc1c[nH]c2ccccc12)NC(=O)[C@H](CCC(N)=O)NC(=O)[C@@H](NC(=O)[C@H](Cc1ccccc1)NC(=O)[C@H](CCC(=O)O)NC(=O)[C@H](CCC(N)=O)NC(=O)[C@H](C)NC(=O)[C@H](CCCNC(=N)N)NC(=O)C(C)(C)NC(=O)[C@@H](NC(=O)[C@H](CC(=O)O)NC(=O)[C@H](CC(C)C)NC(=O)[C@H](Cc1ccc(O)cc1)NC(=O)[C@H](CCCCN)NC(=O)[C@H](CO)NC(=O)[C@H](Cc1ccc(O)cc1)NC(=O)[C@H](CC(=O)O)NC(=O)[C@H](CO)NC(=O)[C@@H](NC(=O)[C@H](Cc1ccccc1)NC(=O)[C@@H](NC(=O)CNC(=O)[C@H](CCC(N)=O)NC(=O)[C@H](CO)NC(=O)[C@@H](N)Cc1c[nH]cn1)[C@@H](C)O)[C@@H](C)O)[C@@H](C)O)C(C)C)C(=O)N[C@@H](CCC(=O)O)C(=O)N[C@@H](CO)C(=O)N[C@H](C(=O)O)[C@@H](C)O) [Glucagon analog compound 39]	0.072	268	0.212	127	< 0.07	> 100	
H-HSHGTFTSDYSKYLDL[Aib]RAQEFVEWLEST-OH (SMILES CC(C)C[C@H](NC(=O)[C@H](Cc1ccc(O)cc1)NC(=O)[C@H](CCCCN)NC(=O)[C@H](CO)NC(=O)[C@H](Cc1ccc(O)cc1)NC(=O)[C@H](CC(=O)O)NC(=O)[C@H](CO)NC(=O)[C@@H](NC(=O)[C@H](Cc1ccccc1)NC(=O)[C@@H](NC(=O)CNC(=O)[C@H](Cc1c[nH]cn1)NC(=O)[C@H](CO)NC(=O)[C@@H](N)Cc1c[nH]cn1)[C@@H](C)O)[C@@H](C)O)C(=O)N[C@@H](CC(=O)O)C(=O)N[C@@H](CC(C)C)C(=O)NC(C)(C)C(=O)N[C@@H](CCCNC(=N)N)C(=O)N[C@@H](C)C(=O)N[C@@H](CCC(N)=O)C(=O)N[C@@H](CCC(=O)O)C(=O)N[C@@H](Cc1ccccc1)C(=O)N[C@H](C(=O)N[C@@H](CCC(=O)O)C(=O)N[C@@H](Cc1c[nH]c2ccccc12)C(=O)N[C@@H](CC(C)C)C(=O)N[C@@H](CCC(=O)O)C(=O)N[C@@H](CO)C(=O)N[C@H](C(=O)O)[C@@H](C)O)C(C)C) [Glucagon analog compound 47]	0.076	253					
